Data taken from patent publication US20240157023A1.

Key:
[1] = molecular target: αvβ3 integrin on human lung fibroblasts (human) (UniProt P06756); experiment: cell-based or functional assay
[2] = molecular target: α5β1 integrin on human lung fibroblasts (human) (UniProt P08648); experiment: cell-based or functional assay
Chain of UniProt P08648 (P08648 42-1049, chain 1 of 2): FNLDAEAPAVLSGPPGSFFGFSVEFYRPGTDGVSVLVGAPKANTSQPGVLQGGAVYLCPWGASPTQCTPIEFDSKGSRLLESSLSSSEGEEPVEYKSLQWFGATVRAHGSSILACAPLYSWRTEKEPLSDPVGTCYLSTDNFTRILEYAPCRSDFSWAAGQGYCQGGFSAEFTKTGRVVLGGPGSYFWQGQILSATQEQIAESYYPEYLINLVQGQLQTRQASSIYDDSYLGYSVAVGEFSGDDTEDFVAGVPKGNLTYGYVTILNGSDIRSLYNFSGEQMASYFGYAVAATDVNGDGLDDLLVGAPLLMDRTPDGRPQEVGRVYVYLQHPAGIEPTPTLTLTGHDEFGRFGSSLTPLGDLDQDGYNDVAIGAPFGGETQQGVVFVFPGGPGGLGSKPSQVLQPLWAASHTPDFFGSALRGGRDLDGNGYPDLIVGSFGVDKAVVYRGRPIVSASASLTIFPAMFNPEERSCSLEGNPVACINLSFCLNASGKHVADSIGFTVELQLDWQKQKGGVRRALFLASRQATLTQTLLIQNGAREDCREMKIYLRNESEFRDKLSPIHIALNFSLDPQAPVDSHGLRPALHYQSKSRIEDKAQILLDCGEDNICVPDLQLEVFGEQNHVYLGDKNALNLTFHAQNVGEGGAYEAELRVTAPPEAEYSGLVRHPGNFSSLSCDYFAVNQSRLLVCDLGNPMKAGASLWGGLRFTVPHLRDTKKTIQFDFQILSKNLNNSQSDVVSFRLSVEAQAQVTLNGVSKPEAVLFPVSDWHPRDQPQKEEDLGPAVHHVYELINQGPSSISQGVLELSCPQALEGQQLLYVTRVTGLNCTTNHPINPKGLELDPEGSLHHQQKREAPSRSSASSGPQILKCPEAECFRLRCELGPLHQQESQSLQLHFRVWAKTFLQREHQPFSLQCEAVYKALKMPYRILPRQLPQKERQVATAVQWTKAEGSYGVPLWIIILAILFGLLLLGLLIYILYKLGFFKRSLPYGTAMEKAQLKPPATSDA
Chain of UniProt P08648 (P05556 21-798, chain 2 of 2, further chain): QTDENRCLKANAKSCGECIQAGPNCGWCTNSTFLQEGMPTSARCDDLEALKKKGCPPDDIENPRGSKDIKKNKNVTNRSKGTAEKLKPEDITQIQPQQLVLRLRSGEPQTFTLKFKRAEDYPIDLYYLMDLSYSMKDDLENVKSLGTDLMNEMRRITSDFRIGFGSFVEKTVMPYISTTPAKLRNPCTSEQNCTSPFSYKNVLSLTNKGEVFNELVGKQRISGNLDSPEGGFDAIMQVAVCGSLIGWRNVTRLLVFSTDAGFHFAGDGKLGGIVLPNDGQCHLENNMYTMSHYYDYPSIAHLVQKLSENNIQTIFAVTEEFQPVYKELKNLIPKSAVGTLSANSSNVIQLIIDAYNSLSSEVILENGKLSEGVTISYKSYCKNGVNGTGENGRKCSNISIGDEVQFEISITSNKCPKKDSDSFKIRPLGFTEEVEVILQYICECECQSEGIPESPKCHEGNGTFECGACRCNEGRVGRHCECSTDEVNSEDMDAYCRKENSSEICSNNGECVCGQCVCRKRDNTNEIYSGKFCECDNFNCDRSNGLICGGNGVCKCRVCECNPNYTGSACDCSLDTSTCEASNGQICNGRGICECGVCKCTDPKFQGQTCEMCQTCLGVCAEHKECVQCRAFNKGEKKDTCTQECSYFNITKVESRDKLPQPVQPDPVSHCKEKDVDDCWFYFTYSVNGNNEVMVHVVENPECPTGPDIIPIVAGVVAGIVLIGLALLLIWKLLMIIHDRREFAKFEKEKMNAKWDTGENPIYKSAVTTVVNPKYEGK

Chain of UniProt P06756 (P06756 31-1048, chain 1 of 2): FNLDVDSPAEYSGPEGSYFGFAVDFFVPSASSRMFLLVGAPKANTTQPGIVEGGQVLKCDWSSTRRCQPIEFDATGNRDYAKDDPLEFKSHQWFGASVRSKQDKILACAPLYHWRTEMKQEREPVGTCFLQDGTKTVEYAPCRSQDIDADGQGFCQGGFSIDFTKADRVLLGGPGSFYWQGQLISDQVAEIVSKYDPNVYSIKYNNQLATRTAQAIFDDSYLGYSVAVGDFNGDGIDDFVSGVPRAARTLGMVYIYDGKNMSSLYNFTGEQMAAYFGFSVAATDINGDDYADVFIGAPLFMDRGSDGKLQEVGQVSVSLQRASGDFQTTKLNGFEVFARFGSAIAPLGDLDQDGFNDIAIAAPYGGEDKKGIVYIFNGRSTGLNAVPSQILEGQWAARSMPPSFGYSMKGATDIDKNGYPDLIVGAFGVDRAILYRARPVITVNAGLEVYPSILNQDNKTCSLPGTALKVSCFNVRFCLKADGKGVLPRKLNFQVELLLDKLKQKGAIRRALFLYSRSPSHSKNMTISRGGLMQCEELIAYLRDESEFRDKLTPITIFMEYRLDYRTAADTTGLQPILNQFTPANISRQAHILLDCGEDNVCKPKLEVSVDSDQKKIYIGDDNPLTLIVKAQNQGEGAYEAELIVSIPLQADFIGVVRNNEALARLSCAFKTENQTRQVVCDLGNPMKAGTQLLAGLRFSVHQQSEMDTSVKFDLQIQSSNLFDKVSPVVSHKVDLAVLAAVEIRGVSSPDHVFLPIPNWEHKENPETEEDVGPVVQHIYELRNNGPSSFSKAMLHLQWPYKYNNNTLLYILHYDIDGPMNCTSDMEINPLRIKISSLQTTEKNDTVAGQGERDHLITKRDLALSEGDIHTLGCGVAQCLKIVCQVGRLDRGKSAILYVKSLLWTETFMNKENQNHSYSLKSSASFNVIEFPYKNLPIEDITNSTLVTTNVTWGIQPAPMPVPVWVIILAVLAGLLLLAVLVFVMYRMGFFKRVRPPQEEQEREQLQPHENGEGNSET
Chain of UniProt P06756 (P05106 27-788, chain 2 of 2, further chain): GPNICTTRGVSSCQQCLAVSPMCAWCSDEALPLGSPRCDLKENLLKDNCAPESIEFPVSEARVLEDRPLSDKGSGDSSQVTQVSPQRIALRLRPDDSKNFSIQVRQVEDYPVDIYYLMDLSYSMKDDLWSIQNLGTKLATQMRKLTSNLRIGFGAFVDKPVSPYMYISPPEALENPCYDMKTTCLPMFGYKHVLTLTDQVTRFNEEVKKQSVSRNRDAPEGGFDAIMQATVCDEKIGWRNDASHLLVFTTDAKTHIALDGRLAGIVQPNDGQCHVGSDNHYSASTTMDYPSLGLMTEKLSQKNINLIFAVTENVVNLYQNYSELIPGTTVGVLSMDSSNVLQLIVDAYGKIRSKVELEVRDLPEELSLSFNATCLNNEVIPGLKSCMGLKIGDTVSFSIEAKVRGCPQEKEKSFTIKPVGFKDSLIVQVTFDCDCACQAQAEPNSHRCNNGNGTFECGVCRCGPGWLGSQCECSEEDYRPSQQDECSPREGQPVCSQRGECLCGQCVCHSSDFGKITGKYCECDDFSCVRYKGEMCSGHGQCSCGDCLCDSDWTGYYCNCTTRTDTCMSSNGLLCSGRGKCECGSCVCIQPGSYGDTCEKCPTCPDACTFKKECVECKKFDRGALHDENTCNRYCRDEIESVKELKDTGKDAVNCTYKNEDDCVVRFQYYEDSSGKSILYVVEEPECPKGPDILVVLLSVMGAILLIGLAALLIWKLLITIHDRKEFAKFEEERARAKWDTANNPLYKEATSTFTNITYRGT

Q: With “Fn4G (recombinant fibronectin fragment of FnIII9 and FnIII10 with four glycine residues inserted in the linker region between them) (ligand)” as the substance, how does the fibroblast spread area on soft elastic Fn4G hydrogels (3 days) [1] read?
A: Its fibroblast spread area on soft elastic Fn4G hydrogels (3 days) is 2060 µm^2.

Q: “Fn9*10 (recombinant fibronectin fragment of FnIII9 and FnIII10 with a leucine to proline point mutation at position 1408) (ligand)” was tested. Which average fibroblast spread area on Fn9*10 hydrogels (all stiffness and viscoelasticity groups, 3 days) [2] did it give?
A: Its average fibroblast spread area on Fn9*10 hydrogels (all stiffness and viscoelasticity groups, 3 days) is 780 µm^2.
